Measured values as given in patent US20170112900A1 (Pieris, published 2017).

Target: T1, human IL-4 receptor alpha chain (Interleukin-4 receptor subunit alpha, Uniprot #P24394, SEQ ID NO: 12) (human, UniProt P24394 26-232, limits assumed)
T1 construct: also called IL-4RA; human IL-4RA
T1 sequence: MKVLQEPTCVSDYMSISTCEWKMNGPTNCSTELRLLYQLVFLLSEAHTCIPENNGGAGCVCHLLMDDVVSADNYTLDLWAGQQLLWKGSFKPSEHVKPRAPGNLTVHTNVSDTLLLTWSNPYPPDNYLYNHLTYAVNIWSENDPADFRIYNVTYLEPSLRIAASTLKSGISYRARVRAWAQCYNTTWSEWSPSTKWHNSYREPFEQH
Assay: method not stated; target IL-4RA implied by the text

B1: IL-4 double mutant IL-4 (R121D, Y124D) (ligand, UniProt P05112 25-153, looked up)
chain: HKCDITLQEIIKTLNSLTEQKTLCTELTVTDIFAASKNTTEKETFCRAATVLRQFYSHHEKDTRCLGATAQQFHRHKQLIRFLKRLDRNLWGLAGLNSCPVKEANQSTLENFLERLKTIMDEKDSKCSS
notes: they probably count on mature IL-4, not on the precursor entry; also called IL-4 mutant (R121D, Y124D); IL-4 mutant
Kd: 0.154 nM
koff: 0.0029 s⁻¹
kon: 1.9e+07 M⁻¹ s⁻¹
